The source of these data is CN114773485A (JIANGSU SIMCERE PHARM CO LTD, dated 2022).

Several values for one entry are separate records, joined by “and”; a condition that tells them apart may be missing. Equal values may be shown once.

The target of assay [1] is T1, PD-L1 on CHO-PD-L1 cells (UniProt Q9NZQ7 19-290, limits assumed). In words: cell-based or functional assay.
Assay [2] deals with T1, PD-L1 on CHO-PD-L1 cells. Briefly: flow cytometry on CHO-PD-L1 cells, anti-human IgG PE.
The target of assay [3] is T2, PD-L1 on mature human dendritic cells (human, UniProt Q9NZQ7 19-290).
T2 construct: whole, on cells; also called DC细胞表面PD-L1
Briefly: flow cytometry on mature human DC, anti-human IgG PE.

For the assay “人PD-L1重组蛋白(Sino …)”, the target named is T3, 人PD-L1重组蛋白(Sino Biological,Cat.10084-H05H) (human, UniProt Q9NZQ7 19-239).
T3 construct: also called 人PD-L1蛋白
In words: competition ELISA, human PD-L1 coated, blocks PD-1-His.

Assay [4] concerns the target T4, 食蟹猴PD-L1蛋白(Cat.#90251-C08H，Sinobiological) (cynomolgus monkey, UniProt G7PSE7 19-239).
T4 construct: Bought protein used as analyte in Biacore; also called 食蟹猴PD-L1-His蛋白; 食蟹猴PD-L1重组蛋白; not shown: His tag
In words: SPR, Biacore T200, antibody captured on Protein A chip, 25℃, 1:1 model.

For a further assay, the target named is T5, 重组人TGF-β1蛋白 (human, UniProt P01137 279-390).
T5 construct: also called 重组人、食蟹猴TGF-β1(Cat.#10804-HNAC，Sinobiological); 人TGF-β1重组蛋白(Novoprotein,Cat.CA59)
Briefly: bridging ELISA: TGF-β1 coated, test molecule, then PD-L1-His and anti-His-HRP.

T1 sequence (Q9NZQ7 19-290 limits assumed): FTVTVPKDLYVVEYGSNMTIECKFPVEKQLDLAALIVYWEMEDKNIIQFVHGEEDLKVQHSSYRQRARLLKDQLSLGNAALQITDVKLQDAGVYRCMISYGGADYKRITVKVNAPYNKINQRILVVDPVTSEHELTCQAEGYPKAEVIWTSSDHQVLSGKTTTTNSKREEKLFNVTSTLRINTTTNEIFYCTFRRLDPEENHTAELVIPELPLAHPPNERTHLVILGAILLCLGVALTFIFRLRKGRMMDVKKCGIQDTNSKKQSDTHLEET
T3 sequence (Q9NZQ7 19-239 limits assumed): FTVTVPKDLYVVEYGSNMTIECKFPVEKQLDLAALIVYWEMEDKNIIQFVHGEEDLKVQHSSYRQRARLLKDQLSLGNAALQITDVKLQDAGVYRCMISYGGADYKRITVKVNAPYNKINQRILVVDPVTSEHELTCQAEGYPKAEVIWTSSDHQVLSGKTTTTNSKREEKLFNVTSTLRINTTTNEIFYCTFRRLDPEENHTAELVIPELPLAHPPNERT
T5 sequence (P01137 279-390 limits assumed): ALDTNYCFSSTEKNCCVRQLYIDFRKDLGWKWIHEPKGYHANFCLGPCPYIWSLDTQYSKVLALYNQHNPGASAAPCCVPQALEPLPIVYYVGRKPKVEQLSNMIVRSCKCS
T4 sequence (G7PSE7 entry or part of it C08H C08H): as the sequence (Q9NZQ7 19-239 limits assumed) above, with A33T, A34S, S62N, R68Q, Q82R, F173L, T185A, T192I, H215L counted along it
T2 sequence (Q9NZQ7 19-290): as the sequence (Q9NZQ7 19-290 limits assumed) above

B1: 人源化抗PD-L1抗体156-BM12 (antibody, V domains shown)
VH: QVQLVQSGPELKKPGASVKISCKASGYTFTDYYMNWVRQAPGQSLEWIGDINPNNGDTSYNQKFKGRVTLTRDTSTSTVYMELRSLRSEDTAVYYCARSVMDYWGQGTLVTVSS
VL: EIVLTQSPALLSLSPGERVTLSCSASSSVNYVYWYQQKPGQAPRPLIYLTFNLASGIPARFSGSGSGTDFTLTISSLEPEDFAVYYCQQWSSNPLTFGGGTKVEIK
notes: also called PD-L1单抗156-BM12; 人源化PD-L1抗体
On to B1, for which, in the assay with PD-L1 on CHO-PD-L1 cells [1], the “EC50, NFAT luciferase reporter (RLU), Jurkat-PD-1/CHO-PD-L1” value was 341 ng/ml and 2.15 nM. For the same molecule, the 50% effective concentration (EC50) with PD-L1 on CHO-PD-L1 cells [2] is 0.105 µg/mL; in assay [3], 405 pM. In the assay with 人PD-L1重组蛋白(Sino …), the IC50 is 896 pM and 1490 pM. The binding result in assay [4] is on record as “binds”; with 重组人TGF-β1蛋白 it was “no binding (tested: 4nM)”.
